The RNAGym collection of RNA variant scans (doi:10.7554/elife.80360)

B1: CPEB3 Ribozyme (parent)
chain: GGGGGCCACAGCAGAAGCGUUCACGUCGCGGCCCCUGUCAGAUUCUGGUGAAUCUGCGAAUUCUGCUGU

Variants of: B1
Experiment: self-cleavage, relative activity (ratio to wild type); higher = more cleavage; co-transcriptional

Variant | self-cleavage
G11C U61C | 0.203
G11C C18G | 0.0784
A10U G41C | 0.859
G11C U55G | 0.165
G11C U55A | 0.271
G11C U43G | 0.279
C12A G58A | 0.62
A10U C57A | 0.273
C12A A51U | 0.628
C12A A51C | 0.544
A10U C54G | 0.958
A10U C54A | 0.902
G11A C22G | 0.119
G11A U43G | 0.4
G11A U43C | 0.658
G11A U43A | 0.442
C12A G41A | 0.213
A10G U55G | 0.36
G11U G65A | 0.682
C12A C18A | 0.139
G11A C45A | 0.821
G11A C45U | 0.906
C12A G14A | 0.148
C12A G14U | 0.13

Variant | self-cleavage
G11U C54G | 0.412
G11U C54A | 0.361
G11U C54U | 0.819
A10G C12G | 0.742
A10G C12U | 0.948
A10G G58U | 0.947
G11U A16G | 0.572
A10U A16G | 0.924
A10U A16U | 0.877
G11C G65A | 0.559
G11C A23G | 0.626
G11C A23C | 0.672
G11U C35A | 0.16
G11U A59U | 0.395
G11U A59C | 0.35
C12A G28A | 0.13
A10U G25A | 0.171
G11C A16C | 0.276
G11C A16U | 0.49
A10U U64A | 0.8
A10U U64G | 0.897
C12A A13U | 0.15
G11A U20A | 0.157
G11C U38C | 0.7

Variant | self-cleavage
G11C G17A | 0.103
G11A G65C | 0.557
A10U U55C | 0.9
G11A C33A | 0.853
A10G U38C | 0.906
A10G U38A | 0.784
A10G U38G | 0.182
A10U A59G | 0.968
A10U G56A | 1.01
A10U G56U | 0.984
G11C C66U | 0.939
G11C C66G | 0.943
G11C G56C | 0.176
G11U G41C | 0.197
A10G G50A | 0.949
G11A G50A | 0.852
G11C A59G | 0.718
G11A U69C | 1.03
A10U U69C | 1.07
A10U U69G | 1.06
G11C C39U | 0.399
G11C G25U | 0.0946
A10G G28C | 0.169
G11A C27U | 0.107

Variant | self-cleavage
G11A C27G | 0.139
G11A C27A | 0.2
G11A G28U | 0.171
G11A G28C | 0.157
G11A G28A | 0.16
C12A G48U | 0.8
G11U A51C | 0.669
A10U C45G | 0.949
G11A A40U | 0.357
G11A A40G | 0.726
G11C G68U | 0.881
G11C A15G | 0.627
A10G U67C | 0.967
C12A U46A | 0.804
C12A C34U | 0.834
G11A C35G | 0.352
C12A C63A | 0.336
C12A C63U | 0.364
C12A U38C | 0.516
C12A U38A | 0.493
C12A U49C | 0.73
G11U U55C | 0.302
G11U U55A | 0.36
A10G C27U | 0.613

Variant | self-cleavage
A10U G50U | 0.978
G11C C12U | 0.452
G11C C12G | 0.211
G11U G31A | 0.746
G11C C24G | 0.114
A10U G65U | 0.796
A10U G65A | 0.842
A10G C22A | 0.141
G11U A42U | 0.581
G11U U69C | 1.05
G11U A60G | 0.497
G11U A60C | 0.234
G11U A60U | 0.281
G11C U53G | 0.415
A10G U46A | 0.91
A10U A15C | 0.746
A10G C33U | 0.953
A10G C33G | 0.854
G11A C66A | 0.818
G11A C66G | 0.917
A10U G48C | 1.03
A10U G48A | 1.02
A10U A51G | 0.955
A10U A51U | 1.04

Variant | self-cleavage
G11A G56C | 0.437
G11U C32A | 0.773
G11U G28A | 0.125
G11A C34G | 0.695
G11A C34A | 0.715
C12A C54U | 0.688
A10U U61G | 0.78
A10U U61A | 0.911
C12A G37U | 0.18
C12A G37A | 0.187
C12A G37C | 0.149
C12A A42U | 0.402
G11U U43C | 0.768
G11A U21G | 0.285
A10U A40G | 0.951
A10U C29A | 0.722
G11C C27G | 0.104
G11C G19U | 0.158
G11C G19A | 0.0742
G11U U21G | 0.196
G11U U21C | 0.541
A10U C35A | 0.245
A10U C35G | 0.64
A10U G37C | 0.3

Variant | self-cleavage
G11A G37U | 0.156
A10G C32U | 0.939
A10G C32A | 0.847
G11C G48U | 0.912
G11C G37U | 0.165
C12A A16U | 0.27
G11C C57A | 0.252
A10G C18G | 0.0572
A10G C18A | 0.0954
A10G C18U | 0.264
C12A | 0.806
A10U G68A | 1.05
A10U G68U | 0.982
G11A G48A | 0.906
C12A G65C | 0.841
C12A C33U | 0.671
A10G C34U | 0.982
G11C U21A | 0.827
G11U U53A | 0.562
G11C U20G | 0.169
A10G G14C | 0.0631
A10G G31C | 0.322
G11A A52G | 0.928
